Consider three molecules from patent publication US20110300138A1 (published 2011).

The target of assay [1] is TSHR (thyroid stimulating hormone receptor), full length human (human) (UniProt P16473). The assay is described as follows: competitor ^125I-K1-70 IgG, TSHR coated tubes; 100 µg/mL in assay buffer.
Assay [2] has as its target TSH receptor (TSHR), full length human, coated on tubes (human) (UniProt P16473). Briefly: inhibition of 125I-K1-18 IgG binding to TSHR coated tubes; competitor 125I-K1-18 IgG; sample at 0.1 µg/mL in HBD serum.
Assay [3] deals with TSH receptor (full length human TSHR) (human) (UniProt P16473). Briefly: competition ELISA: inhibition of M22 Fab-peroxidase (competitor) binding to TSHR coated wells; test sample at 100 µg/mL diluted in HBD serum pool. In general terms: An ELISA detects its analyte on a solid surface through an enzyme-linked reagent.
The target of assay [4] is TSH receptor (TSHR), full length human, coated on tubes (human) (UniProt P16473). The assay is described as follows: inhibition of 125I-TSH binding to TSHR coated tubes; 0.01 µg/mL, diluted in HBD serum pool; mean of duplicates.
Assay [5] has as its target TSH receptor (full length human TSHR) (human) (UniProt P16473). Briefly: competition ELISA: inhibition of M22 Fab-peroxidase (competitor) binding to TSHR coated wells; negative control at 0.1 µg/mL diluted in HBD serum pool.
In assay [6] the target is TSH receptor (TSHR), full length human, coated on tubes (human) (UniProt P16473). The assay is described as follows: inhibition of 125I-TSH binding to TSHR coated tubes; 10 µg/mL, diluted in HBD serum pool.
For assay [7] the target is unchanged. The assay is described as follows: inhibition of 125I-K1-18 IgG binding to TSHR coated tubes; competitor 125I-K1-18 IgG; negative control sample at 0.01 µg/mL in assay buffer.
Assay [8] concerns the target TSH receptor (TSHR) coated on tubes (human) (UniProt P16473). Briefly: inhibition of 125I-K1-70 IgG binding to TSHR coated tubes; negative control 0.01 µg/mL in HBD serum pool.
For assay [9], the target named is human thyroid stimulating hormone receptor (TSHR), full length (human) (UniProt P16473). The assay is described as follows: 125I-K1-70 Fab (competitor) binding to TSHR coated tubes; negative control MAb 0.01 µg/mL in assay buffer.
Assay [10] deals with TSHR (thyroid stimulating hormone receptor), full length human (human) (UniProt P16473). The assay is described as follows: negative control; competitor ^125I-K1-70 IgG, TSHR coated tubes; 0.01 µg/mL in assay buffer.
For assay [11], the target named is TSHR (full length) coated on tubes (human) (UniProt P16473). The assay is described as follows: inhibition of 125I-K1-18 Fab (competitor) binding to TSHR coated tubes; negative control 1 µg/mL in assay buffer.
Assay [12] shares this target. Briefly: inhibition of 125I-K1-18 Fab (competitor) binding to TSHR coated tubes; negative control 0.1 µg/mL in assay buffer.
Assay [13] addresses TSH receptor (full length human TSHR) (human) (UniProt P16473). The assay is described as follows: competition ELISA: inhibition of M22 Fab-peroxidase (competitor) binding to TSHR coated wells; negative control at 0.01 µg/mL diluted in assay buffer.
Assay [14] has as its target human thyroid stimulating hormone receptor (TSHR), full length (human) (UniProt P16473). Briefly: 125I-K1-70 Fab (competitor) binding to TSHR coated tubes; negative control MAb 0.01 µg/mL in HBD serum.
Assay [15] addresses thyroid stimulating hormone receptor (TSHR), full length human TSHR (human) (UniProt P16473). The assay is described as follows: TSH-biotin competition ELISA, TSHR coated wells; negative control, 100 µg/mL in assay buffer.
Assay [16] deals with TSHR (full length) coated on tubes (human) (UniProt P16473). Briefly: inhibition of 125I-K1-18 Fab (competitor) binding to TSHR coated tubes; negative control 100 µg/mL in HBD serum.
The target in assay [17] is TSH receptor (TSHR) coated on tubes (human) (UniProt P16473). Briefly: inhibition of 125I-K1-70 IgG binding to TSHR coated tubes; sample 0.1 µg/mL in HBD serum pool.
Assay [18] deals with human thyroid stimulating hormone receptor (TSHR), full length (human) (UniProt P16473). Briefly: 125I-K1-18 Fab competition, TSHR coated tubes; 1 µg/mL in assay buffer.
For assay [19], the target named is thyroid stimulating hormone receptor (full length human TSHR) (human) (UniProt P16473). Briefly: ELISA, inhibition of TSH-biotin binding to TSHR coated wells; 0.1 µg/mL, diluted in assay buffer.
The target in assay [20] is TSH receptor (TSHR), full length human, coated on tubes (human) (UniProt P16473). The assay is described as follows: inhibition of 125I-TSH binding to TSHR coated tubes; 10 µg/mL, diluted in HBD serum pool. This is another data set of the same source.
The target of assay [21] is thyroid stimulating hormone receptor (full length human TSHR) (human) (UniProt P16473). The assay is described as follows: ELISA: inhibition of M22 Fab-peroxidase (competitor) binding to TSHR coated wells; 100 µg/mL, diluted in assay buffer.
Assay [22] concerns the target human thyroid stimulating hormone receptor (TSHR), full length (human) (UniProt P16473). The assay is described as follows: 125I-K1-18 Fab competition, TSHR coated tubes; 100 µg/mL in assay buffer.
Assay [23] has as its target TSH receptor (TSHR), full length human, coated on tubes (human) (UniProt P16473). Briefly: inhibition of 125I-TSH binding to TSHR coated tubes; 0.1 µg/mL, diluted in assay buffer.
Assay [24] shares this target. Briefly: inhibition of 125I-TSH binding to TSHR coated tubes; 100 µg/mL, diluted in assay buffer.
The target in assay [25] is thyroid stimulating hormone receptor (full length human TSHR) (human) (UniProt P16473). The assay is described as follows: ELISA, inhibition of TSH-biotin binding to TSHR coated wells; 1 µg/mL, diluted in HBD serum pool.
Assay [26] addresses human TSH receptor (full length) coated on ELISA plate wells (human) (UniProt P16473). The assay is described as follows: TSH-biotin binding inhibition ELISA, TSHR coated wells; 100 µg/mL in HBD serum pool.
Assay [27] addresses TSH receptor (TSHR), full length human, coated on tubes (human) (UniProt P16473). Briefly: inhibition of 125I-K1-18 IgG (competitor) binding to TSHR coated tubes; test sample at 10 µg/mL in HBD serum pool.

Regarding 9D33 IgG (antibody), the Inhibition of binding (%) in [1] came out at 61.4%; in assay [2], 33.8%; in assay [3], 65.9%.

Take 5B3 IgG (antibody): the Inhibition of binding (%) was 2.6% in assay [4]; 3% in assay [5]; -1.9% in assay [6]; -4.2% in assay [7]; 3.2% in [8]; -1.7% in [9]. The Inhibition of binding (%) in [10] is -3.6%; in [11], -0.9%; in assay [12] it was -3.6%; in assay [13] it was 2.2%; in assay [14], -5.3%; in assay [15] it was 1.3%. Also, the Inhibition of binding (%) in [16] was -1.1%.

B1: 5C9 IgG (antibody, from another filing, V domains shown)
VH: EVQLVESGGGLIQPGGSLRLSCAASGFTVSSNYMSWVRQAPGKGLEWVSVTYSGGSTSYADSVKGRFTISRDNSKNTLYLQMNSLRAEDTAVYYCARGGRYCSSISCYARSGCDYWGQGTLVTVSS
VL: AIQMTQSPSSLSASVGDRVTITCRASQSISNYLNWYQQKPGKAPKLLIYAASSLQSGVPSRFSGSGSGTDFTLTISSLQPEDFATYYCQQSYSSPSTTFGQGTKLEIK
Turning to B1, the Inhibition of binding (%) was found to be 4.4% in assay [17]; 52.5% in [18]; 26.1% in [19]; 39.9% in assay [20]; 24.6% in assay [21]; 85.2% in assay [22]. The Inhibition of binding (%) in assay [23] turned out to be 24.4%; in assay [24] it was 92.5%; in assay [25], 28.5%; in assay [27], 46.7%. In assay [26], this molecule yielded a % inhibition of TSH-biotin binding of 48.6%.
